Laboratory results reported in paper PMC3127822.

Key:
[1] = biological target: GST-tagged CC1 fragment from the dynactin subunit p150Glued; experiment: pull-down; 1 ug/ul GST-NudE or GST-CC1 with glutathione agarose 4B and pre-cleared whole brain lysate of P0 wild-type or Loa/Loa mice; phosphate-glutamate buffer (10 mM sodium phosphate, 100 mM sodium glutamate, pH 7.0, 1 mM MgSO4, 1 mM EDTA, 1 mM DTT, 0.2% NP-40), 4°C, 2 hours; western blot of supernatants and pellets
[2] = biological target: recombinant glutathione S-transferase (GST) NudE (UniProt Q9CZA6); experiment: as above
Sequence of UniProt Q9CZA6 (Q9CZA6 whole entry): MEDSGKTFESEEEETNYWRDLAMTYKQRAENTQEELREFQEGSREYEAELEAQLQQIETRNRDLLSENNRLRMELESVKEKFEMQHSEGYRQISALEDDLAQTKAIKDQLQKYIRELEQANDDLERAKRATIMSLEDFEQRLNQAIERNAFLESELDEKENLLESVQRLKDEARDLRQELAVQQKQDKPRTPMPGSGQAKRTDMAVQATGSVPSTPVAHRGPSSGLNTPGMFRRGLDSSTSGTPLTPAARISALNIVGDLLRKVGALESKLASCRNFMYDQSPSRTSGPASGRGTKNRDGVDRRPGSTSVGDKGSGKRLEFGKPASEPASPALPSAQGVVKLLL

Substance	percent of heavy chain in the pellet [1] [%]	percent of heavy chain in the NudE pellet [2] [%]
Loa/Loa mutant cytoplasmic dynein (from UniProt Q9JHU4 1-4644; O88485 1-628) (complex)	40.7	57.7
wild-type cytoplasmic dynein (from UniProt Q9JHU4 1-4644; O88485 1-628) (complex)	45.3	66.2
